Measurements from patent publication US20140357845A1.

Target: miniHA (A/Brisbane/59/2007) (influenza A virus H1N1), A8C8J4
Test: FACS
Conditions: remark: other sources report otherwise

B1: CR6261 (antibody, V domains shown)
VH: EVQLVESGAEVKKPGSSVKVSCKASGGPFRSYAISWVRQAPGQGPEWMGGIIPIFGTTKYAPKFQGRVTITADDFAGTVYMELSSLRSEDTAMYYCAKHMGYQVRETMDVWGKGTTVTVSS
VL: QSVLTQPPSVSAAPGQKVTISCSGSSSNIGNDYVSWYQQLPGTAPKLLIYDNNKRPSGIPDRFSGSKSGTSATLGITGLQTGDEANYYCATWDRRPTAYVVFGGGTKLTVLG
  % positive cells: 1 to 3%
